Assay results as given in IntAct's records for PubMed 17496148.

B1: Anti-sigma-E factor RseA (Escherichia coli (strain K12)), P0AFX7 (parent)
chain: MQKEQLSALMDGETLDSELLNELAHNPEMQKTWESYHLIRDSMRGDTPEVLHFDISSRVMAAIEEEPVRQPATLIPEAQPAPHQWQKMPFWQKVRPWAAQLTQMGVAACVSLAVIVGVQHYNGQSETSQQPETPVFNTLPMMGKASPVSLGVPSEATANNGQQQQVQEQRRRINAMLQDYELQRRLHSEQLQFEQAQTQQAAVQVPGIQTLGTQSQ
partner: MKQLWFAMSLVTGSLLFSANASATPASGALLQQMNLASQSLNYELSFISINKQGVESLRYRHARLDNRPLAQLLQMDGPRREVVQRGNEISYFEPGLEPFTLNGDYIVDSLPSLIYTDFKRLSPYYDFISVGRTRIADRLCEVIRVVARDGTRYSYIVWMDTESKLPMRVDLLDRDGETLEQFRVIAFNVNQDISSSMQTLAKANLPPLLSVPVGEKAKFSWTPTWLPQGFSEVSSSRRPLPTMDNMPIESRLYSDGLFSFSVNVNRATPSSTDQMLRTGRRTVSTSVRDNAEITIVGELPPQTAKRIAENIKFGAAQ

Variants of: B1
Conditions: with rseb_ecoli rseB

effect of a mutation on the interaction	Variant
disrupting interaction strength	MQKEQLSALMDGETLDSELLNELAHNPEMQKTWESYHLIRDSMRGDTPEVLHFDISSRVMAAIEEEPVRQPATLIPEAQPAPHQWQKMPFWQKVRPWAAQLTQMGVAACVSLAVIVGVQHYNGQSETSQQPETPVFNTLPMMGKASPVSLGVPSEATANNGQQQQVQEQRRRINAMLQDYELQEELHSEQLQFEQAQTQQAAVQVPGIQTLGTQSQ [R184E;R185E]
disrupting interaction strength	MQKEQLSALMDGETLDSELLNELAHNPEMQKTWESYHLIRDSMRGDTPEVLHFDISSRVMAAIEEEPVRQPATLIPEAQPAPHQWQKMPFWQKVRPWAAQLTQMGVAACVSLAVIVGVQHYNGQSETSQQPETPVFNTLPMMGKASPVSLGVPSEATANNGQQQQVQEQREEINAMLQDYELQRRLHSEQLQFEQAQTQQAAVQVPGIQTLGTQSQ [R171E;R172E]
disrupting interaction strength	MQKEQLSALMDGETLDSELLNELAHNPEMQKTWESYHLIRDSMRGDTPEVLHFDISSRVMAAIEEEPVRQPATLIPEAQPAPHQWQKMPFWQKVRPWAAQLTQMGVAACVSLAVIVGVQHYNGQSETSQQPETPVFNTLPMMGKASPVSLGVPSEATANNGQQQQVQEQRAAINAMLQDYELQRRLHSEQLQFEQAQTQQAAVQVPGIQTLGTQSQ [R171A;R172A]
disrupting interaction strength	MQKEQLSALMDGETLDSELLNELAHNPEMQKTWESYHLIRDSMRGDTPEVLHFDISSRVMAAIEEEPVRQPATLIPEAQPAPHQWQKMPFWQKVRPWAAQLTQMGVAACVSLAVIVGVQHYNGQSETSQQPETPVFNTLPMMGKASPVSLGVPSEATANNGQQQQVQEQRRRINAMLQDYELQAALHSEQLQFEQAQTQQAAVQVPGIQTLGTQSQ [R184A;R185A]
